Assay: label from the status in PepcDB records
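Note: failed if final PepcDB status was selected cloned or expressed and not failed if soluble or beyond.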

Sequence | protein production
MTLATRSMQPHAVSPGQARSWPLPAAGWLLLAVGVWLAFLSWMRPLALPDEGRYAGVAWDMLRNGSFAVPLIDGMPYFHKPPLYYWLAELSFRLFGVNEWAVRLPSALAAWASAVALYLFVRRHRDAASATLCVLVLATLPLFFGGAQYANMDMLVAGMITLCVLAGADTALRVRGGQAWRAMALATGVCAALAMLAKGLIGLVLPGAILLAWLAWRRDWRGLRALLWPPAILAFAVVAVPWFWLMQVRYPGFFQYFFVHQHFERFAQTGFNNVQPFWFYLPVIAGLALPWSLWAGGLLRKQFWAADADPDGLRRLALVWLAVIVAFFSMPQSKLVGYIMPVLPPLAFLLAEVVMGALRDPAVARATRRMARVSALVAVAICVTAVFVASFNARGSSRELALSLRGELRPDDTLVALHTYPFDLQLYAHAARPMWVVDDWSNPEIPKRDNWRRELYDAVQFEPALGERLLVSADTFQQRLCQAPEGSRYWVWGTAADEEAYAPLRGQAARFADARRSLWLVLVDEAFKGRVCDGTPTGG | failed
MVLKGDAKRIVAMSSTHIAMLDAIGEVRCITGVSGIDYISNPDIQARRDSIGDVGYEGNINYELLLSLDPDLVLLYGVNGASAMESKLEELDIPFMYVGDYLEESPLGKAEWMVVLSEVTGKREKGEKAFAAIPVRYNALKKKVADSTLGLEHHHHHH | not failed
MEIGVSGASGQLGKAVLAELAARGAGHRVVGISRTPERVPAPAQGRLGDYDRAETLLQAYRGLDRLLLIPSADLGPGVRGRQFTAAIDAAVRAGVKHIVMVSTAGTRELAEPALGAAYWVGEQRLVKTAPRWTILRMNYYAESFAQQAPMFLGSGILPGLGENRVAFVSRDDVAAAAAGILLGEGHAGAIYNATGPVALSGAQRAALVAELSGKPLRFAVSDEAPLRQGLAQAGLPGGFVDAVIDLEKSFVAGAFDVVTGDVARLAGREPRALRTLLADSLRPAVADA | failed
MRISKMLVTELNIYPLKSARGIALKESAVSAEGLPGDRRAMLTDPSGHFITQRELPAIATVLARHEDGGMALSRERSGEIFARPSGQRMDVAVWKSIVSANIADDETNDTLSAWLGREVKLVFFDDAAKRIASLEWTGNETPVTFADGYQILVTTTASLAALNDNMRGNGEDAVGMERFRPNIVLETEEAWAEDRWAAIEIGGIRFDLVKPCARCIMTTQDQMTGSRDVPSPMKAMGRIRMSGDRRVPGPLFGWNVTPRGEGRLSVGDVARVVEERPEGWAIKRRLEHHHHHH | not failed
MIENTIYKEFIDKISELSDGIYPIITDLDNDLSYVPDKTADFFGFEAGEHTCFFEQLSSCVNDVDLPEYKREIRYRLNGEKPDDIFYVRMGKHTKEYMMGFYSDIFTGDDGHRYHVLVLRNENTLPDIDPYTYLYGQSKFERDINGYIMENRSVAIIEVEIGHIDEFNILYGSNFNTAIQRELALKFIYMMDGSTATYYMNNCKFVFVVKEADRALAESFYQKIADTIKSMYFFKCFKFEFDIYAACLILKDYDGDTSTVISKVEYTLDRAKELHSSDLLFFNDMVRFNGSSHIDIMKIIHQSVINSCDGFFVEFQPIVKACNGEIMGAEALVRWKKEPFGTVPPGLFIDWLEDTPAMYELGNYIMRTAISAASEFAKIKPGFFINVNASSEQLEKENFVKDTLAILKEYDFPPSQLWIEITERCRDLPISMIKKTVTAFREAGIHITMDDYGTGSSSSQMMLELPVEGIKIDMFFVKDILEEKKKQALVIGMINFANAADLKICIEGIENDNLESYLRQFDVTWFQGYHYSRSICQDELMKLLIKP | failed
MKKVLPALLMGFVGLNASDRLLEIMRLYQKQGLEMVGQKLDSYLADKSFWAEELQNKDTDFGYYQNKQFLFVANKSKPSLEFYEIENNMLKKINSSKALVGSKKGDKTLEGDLATPIGVYRITQKLERLDQYYGVLAFVTNYPNLYDTLKKRTGHGIWVHGMPLNGDRNELNTKGCIAIENPLLSSYDKVLKGEKAFLITYEDKFFPSTKEELSMILSSLFQWKEAWARGDFERYMRFYNPNFTRYDGMKFNAFKEYKKRVFAKNEKKNIAFSSINVIPYPNSQNKRLFYVVFDQDYKAYQHNKLSYSSNSQKELYIEIENNQVSIIMEK | failed
MQLSAPPYEERLTAPRTWWLMCFLVGVSMALILLPFGTLPLLGGLVGGTAVAAVVASSYGSIRIRVVGDSLIAGEAKIPVAALGEAEIMDQEEARAWRTYKANPRAFMLLRSYIPTALRVEVTDPQDPTPYLYLSTREPERLAAALKAARTEA | failed
MRDTRESRLLLVLLVAIAFALITVDIRGGQDSPVDGARQAAATVFGPIENGVSSAVDPVGNAVAAVRDSGSRHDRIAQLEHDNAALKAKLGSDDRNRSRLKQLNKMIRVAGEGQYGIKGAEVIGIGAAQGFSWTVTIDVGANDGIKRDMTVLNGDGLVGRVTTVGPNAATVLLANDPDFTVGTRMESSDELGFASGQGDRPLRVQLLNGKAKVVKGDRLVTFGSQADRPFVPGVPVGVVSRVDPSGGDLTRTVYVTPYVSFTKLDIVGVVVAAPKKDPRDEVLPPKPRPTPTPTVTVTVTPSANASADGQQQQQ | failed
MATPAYMSITGTKQGLITAGAFTEDSVGNTYQEGHEDQVMVQGFNHEVIIPRDPQSGQPTGQRVHKPVVITKVFDKASPLLLAALTSGERLTKVEIQWYRTSAAGTQEHYYTTVLEDAIIVDIKDYMHNCQDPGNAHFTHLEDVHFTYRKITWTHEVSGTSGSDDWRSPVAG | not failed
MKNFVVKTIANAGALAVAVWLLDKITLTGDSTGKKIGTLIVVALVFGLVNFLVKPIVKVLTFPLFILTLGLITLVVNALMLLLTSWLADKLDLSFHVEGFWTAVVGGLIISVVSWALNVVLPDDKD | failed
MGKKNPNARHTDAATPLTTDDSNSSSVSRRESATESKSASESESSPPRSNTKQSRTHKNVKASGKATVSSSSDSDQAVANSSANDEEKEPVCKIRIVPLEKLLASPKTKERPSRGSQQKNVTINDSSDEEPLKGSKLVLPARKSRNKNAS | failed
MLFFNVASLKYKHHESIQMIIDRIDHLVLTVSDISTTIRFYEEVLGFSAVTFKQNRKALIFGAQKINLHQQEMEFEPKASRPTPGSADLCFITSTPINDVVSEILQAGISIVEGPVERTGATGEIMSIYIRDPDGNLIEISQYVLEHHHHHH | not failed
MVKESGMASLLLENPYYGYRKPKDQLRSSLKNVSDLFVMGGALILESAALLHWLERDGFWPLGMTGISMGGHMASLAVTNWPKPIPLIPCLSWTTASSVFTTGVLSRAVNWRELEKQYATHTVYEEEIISMLEYCGTDSFRMGQEFVKNAPGSFDGLDLTQELLQSGQQVALRSSYSGRPASDQDSSVLMGRRERDGLDQMLSAVSSSAPHLDMLHAKSIACGSGQRQSLQRESLCFMKGVMDECTHIANFSVPVDPSLIIIVQAKEDAYVPRTGVRSLQEIWPGCEVRYLNGGHISAYLFKQGLFRQAIYDAYDRFLHKYSSL | not failed
MNRIKAVGYENNELKEKAQLLADQLNLQLDQNADTCLFVTPEKLTLKIRNFSLMFADFSAMTWSKRRGEGKRQGLIRACKPTKGIKILDATAGWGKDAAILATFGADVVMLERHPVMAALLADALSRRNEADIQKMCLSLIASDAISFLHSLQEKDYPDIIYIDPMHPERNKSALVKKEMQVLQQLIGTDHDAMELIELSLSHVKSRVVVKWPQKVKPLLPPDASIDGKTVRFDIYMAQFSSN | failed
MLAAWLGCVLPAGAGLPVETLRVPPGFRVELLTEAMPSAREMALSPAGILYVGSRTGKVYALPLQVPGATVRVVASGLEQPVGVAWRDGSLYVSAVSRVVRLDRIDSRLDDPPVPVVVSDRFPTETHHGWKFIAFGPDGKLYVPVGAPCNVCHRDEDRYANLMRMNADGSSLEVVARGIRNTVGFDWHPVTHELWFTDNGADMMGDDVPDDELNRITAPGQHFGYPFCHAGDVPDPEFGAGHPCSRYVPPVGKLGAHVAALGMRFYTGSNFPQAYRHNLFIAEHGSWNRSSKVGYRVVRVVLDAAGKVVRQEPFVEGWLRGERAWGRPVDVLVAPDGSLLVSDDYAGAVYRVRYTGKLEHHHHHH | failed
MNEFTAVKELSEKLLEDYKTESSFFFASPTRTILAEGEFTTVKHHEIESFPELVQAVLRNAKQAGNPNPIVVGALPFDRRKEVQLIVPEYSRISERLQLDPTNHLEINRNLTFEMTPVPDHEVYMKGVKQGIEKIKDGDLKKIVLSRSLDVKSSGKIDKQKLLRELAEHNKHGYTFAVNLPKDENENSKTLIGASPELLVSRHGMQVISNPLAGSRPRSDDPVEDKRRAEELLSSPKDLHEHAVVVEAVAAALRPYCHTLYVPEKPSVIHSEAMWHLSTEVKGELKNPNTSSLELAIALHPTPAVCGTPMEEAREAIQKIEPFDREFFTGMLGWSDLNGDGEWIVTIRCAEVQENTLRLYAGAGVVAESKPEDELAETSAKFQTMLKALGLNDSSLNEK | not failed

Source: a protein production outcome set (Wang et al. 2014)
